Assay results from PMC5374059 (Journal of molecular biology, 2016).
Ends that are not written are not given here. Me3 = trimethyl-lysine; Me2 = dimethyl

Assays:
[1] = biological target: Set3 PHD finger (wild type, as used in fluorescence and NMR titrations) (yeast) (UniProt P36124); experiment: NMR titration
[2] = biological target: Set3 PHD finger (wild type, as used in fluorescence and NMR titrations) (yeast) (UniProt P36124); experiment: other fluorescence titration
[3] = biological target: T131M mutant of Set3 PHD (yeast) (UniProt P36124); experiment: other fluorescence titration
[4] = biological target: T1, Set3 PHD finger (aa 116-184), crystallised (yeast, UniProt P36124 116-184); experiment: crystal structure
T1 sequence (looked up): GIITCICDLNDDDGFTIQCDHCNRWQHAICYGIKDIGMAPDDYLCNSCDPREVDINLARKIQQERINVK

M132T mutant of MLL5 PHD = biological target: T2, M132T mutant of MLL5 PHD (human, UniProt Q8IZD2 117-181, M132T); experiment: NMR titration
T2 sequence (looked up): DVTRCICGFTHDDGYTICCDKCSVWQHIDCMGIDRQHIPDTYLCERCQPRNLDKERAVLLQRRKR

Molecule	Kd [1] [µM]	Kd [2] [µM]	Kd [3] [µM]	binding result [4]	other results
histone H3K4me0 peptide (unmodified, residues 1-12 of histone H3) (from UniProt P61830 2-13)	1400	–	–	–	–
histone H3K4me1 peptide (residues 1-12 of histone H3) (from UniProt P61830 2-13)	790	–	–	–	–
histone H3K4me2 peptide (residues 1-12 of histone H3) (from UniProt P61830 2-13)	–	30	8	–	–
histone H3K4me3 peptide (residues 1-12 of histone H3) (from UniProt P61830 2-13)	–	20	2.5	–	–
ARTK(Me2)QTARKSTG (peptide, UniProt P61830 2-13, looked up) [histone H3K4me2 peptide (residues 1-12 of histone H3)]	–	–	–	binds	–
ARTK(Me3)QTARKSTG (peptide, UniProt P61830 2-13, looked up) [histone H3K4me3 peptide (residues 1-12 of histone H3)]	–	–	–	binds	fold selectivity for H3K4me3 over H3K4me2 (M132T mutant of MLL5 PHD): 1.5 fold
